Test in all cases: EMSA
Background: In EMSA bound probe runs differently from free probe, usually more slowly.

The target of one data set is T1, TAF3 (UniProt Q5HZG4 1-932).
T1 sequence: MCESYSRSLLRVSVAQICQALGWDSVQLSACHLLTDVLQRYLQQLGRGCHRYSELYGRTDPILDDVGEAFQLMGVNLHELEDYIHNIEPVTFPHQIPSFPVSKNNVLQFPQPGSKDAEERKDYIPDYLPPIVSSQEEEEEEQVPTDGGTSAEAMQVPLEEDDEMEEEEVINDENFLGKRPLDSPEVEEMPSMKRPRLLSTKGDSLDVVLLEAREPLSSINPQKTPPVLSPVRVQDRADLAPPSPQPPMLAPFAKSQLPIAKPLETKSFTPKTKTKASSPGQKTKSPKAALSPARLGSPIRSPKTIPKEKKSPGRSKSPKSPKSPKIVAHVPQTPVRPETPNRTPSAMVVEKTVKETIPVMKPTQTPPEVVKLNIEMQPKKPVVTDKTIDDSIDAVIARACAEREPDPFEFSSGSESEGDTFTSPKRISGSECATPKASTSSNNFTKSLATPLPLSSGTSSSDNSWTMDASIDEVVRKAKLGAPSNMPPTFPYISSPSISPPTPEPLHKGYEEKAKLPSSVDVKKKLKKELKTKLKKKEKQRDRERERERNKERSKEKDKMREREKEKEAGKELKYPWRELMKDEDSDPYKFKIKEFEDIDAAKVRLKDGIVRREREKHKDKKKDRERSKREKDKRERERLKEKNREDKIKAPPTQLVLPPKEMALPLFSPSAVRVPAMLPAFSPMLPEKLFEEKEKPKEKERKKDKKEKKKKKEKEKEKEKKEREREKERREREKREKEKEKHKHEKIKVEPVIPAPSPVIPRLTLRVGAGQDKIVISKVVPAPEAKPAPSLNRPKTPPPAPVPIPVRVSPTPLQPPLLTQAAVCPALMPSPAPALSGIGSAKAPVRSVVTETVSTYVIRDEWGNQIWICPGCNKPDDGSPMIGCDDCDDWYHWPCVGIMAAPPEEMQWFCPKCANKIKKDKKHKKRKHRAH

The target in the next data set is T2, TAF3;TRF3 (mouse?;mouse?, UniProt Q5HZG4;Q6SJ95 1-932;1-350, |).
T2 sequence 1: T1 sequence
T2 sequence 2: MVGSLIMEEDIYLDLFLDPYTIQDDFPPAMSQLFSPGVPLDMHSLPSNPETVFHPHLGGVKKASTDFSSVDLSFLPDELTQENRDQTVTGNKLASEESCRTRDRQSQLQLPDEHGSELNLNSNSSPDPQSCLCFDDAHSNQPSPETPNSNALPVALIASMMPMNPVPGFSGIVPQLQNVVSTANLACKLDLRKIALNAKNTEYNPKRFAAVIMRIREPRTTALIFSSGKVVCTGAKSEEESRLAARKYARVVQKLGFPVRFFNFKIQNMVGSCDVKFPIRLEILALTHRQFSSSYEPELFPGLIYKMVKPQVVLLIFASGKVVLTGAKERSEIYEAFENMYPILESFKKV

A further data set concerns the target T3, TRF3 (UniProt Q6SJ95 1-350).
T3 sequence: T2 sequence 2

B1: Myogenin TATA probe / TATA competitor (dsDNA)
DNA 1: GAGGGTTTAAATGGCACCCAG
DNA 2: CTGGGTGCCATTTAAACCCTC
On to B1, for which the binding result in the data set with TAF3 was “no binding”; with TAF3;TRF3, “binds”; with TRF3, “binds”.

Values taken from publication PMC2629732.
